# Tests used:
# [1] = WB of endogenous EP300, 786-O and Caki-1; conditions: glycan lost; control: untreated
# [2] = nuclear/cytoplasmic fractionation WB and IF; conditions: glycan lost; control: Flag-EP300-WT
# [3] = anti-Flag WB of cell fractions; conditions: glycan lost; control: Flag-EP300-WT
# [4] = CHX chase, WB, 786-O cells; conditions: glycan lost; control: Flag-EP300-WT
Substance,expression_or_secretion [1],localisation_or_trafficking [2],expression_or_secretion [3],degradation_or_half_life [4]
EP300: OSMI-1,decreases,–,–,–
EP300: S900A,–,no change,changes,decreases
